Laboratory results as given in patent US20170283484A1.

Experiments:
[1] = target: HCV E2 envelope glycoprotein (hepatitis C virus) (UniProt P27958); assay: ELISA of E2 on AP33 alanine mutants
[2] = target: AP33 antibody (wild type mouse monoclonal); assay: peptide inhibition ELISA: antibody pre-incubated with peptide, then transferred to E2-coated plates (competitor: E2) [panel AP33]
AP33 antibody (wild type mouse monoclonal), sequence (VH, as listed by the source, chain 1 of 2): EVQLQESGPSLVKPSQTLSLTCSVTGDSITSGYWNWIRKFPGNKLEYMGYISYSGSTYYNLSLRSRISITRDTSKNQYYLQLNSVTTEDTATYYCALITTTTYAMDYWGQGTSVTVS
AP33 antibody (wild type mouse monoclonal), sequence (VL, as listed by the source, chain 2 of 2): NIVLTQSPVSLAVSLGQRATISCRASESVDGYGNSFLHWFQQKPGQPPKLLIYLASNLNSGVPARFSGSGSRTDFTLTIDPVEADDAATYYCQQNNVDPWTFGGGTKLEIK

HCV E2 envelope glycoprotein (hepatitis C virus), sequence (P27958 384-746 limits assumed): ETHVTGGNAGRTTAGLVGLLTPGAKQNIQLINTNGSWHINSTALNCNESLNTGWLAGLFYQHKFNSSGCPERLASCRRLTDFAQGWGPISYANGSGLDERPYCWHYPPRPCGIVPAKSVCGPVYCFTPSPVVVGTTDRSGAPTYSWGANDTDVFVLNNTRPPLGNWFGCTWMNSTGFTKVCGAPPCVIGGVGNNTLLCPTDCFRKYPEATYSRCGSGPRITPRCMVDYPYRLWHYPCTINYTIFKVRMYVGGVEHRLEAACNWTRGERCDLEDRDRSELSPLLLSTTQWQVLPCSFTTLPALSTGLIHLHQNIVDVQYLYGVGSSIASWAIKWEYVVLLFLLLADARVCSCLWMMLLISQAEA

| Substance | reduction of binding relative to WT AP33 [1] [%] | IC50 (read off the curve) [2] [µg/mL] |
| --- | --- | --- |
| AP33 mutant IH95A (antibody) | 90 | – |
| AP33 mutant YH33A (antibody) | 90 | – |
| AP33 mutant YH58A (antibody) | 90 | – |
| peptide corresponding to the WT AP33 epitope (aa residues 412-424 of E2) (from UniProt P27958 412-424) | – | 0.1 |
| AP33 mutant FL32A (antibody) | 90 | – |
| AP33 mutant WL96A (antibody) | 90 | – |
| AP33 mutant NL91A (antibody) | 90 | – |
